From patent publication US20100166734A1 (published 2010)
Residue numbers refer to the chain shown, from its start.

B1: 1D7 (VHH)
VHH: EVQLVESGGGLVQSGGSLRLSCAASGRAFNYYAMGWFRQAPGKERELVAVINWSGGTTSYADSVKGRFTISRSNAKNTVYLQMSSLKPEDTAVYYCAADSIYRTSKDYNYWGQGTQVTVSS
notes: Carries myc and His tags (detected with anti-myc, pulled down on talon beads)
B2: 4B7 (VHH)
VHH: EVQLVESGGGLVQAGGSLRLSCAASGFTFDDYAIGWFRQAPGKEREGVSCISSRDGITYYADSVKGRFTISSDNAKNTVYLQMNSLKPEDTAVYYCAADLVGSFPCPVAAYDYWGQGTQVTVSS
notes: Carries myc and His tags
B3: 4A6 (VHH)
VHH: EVQLVESGGGLVQPGGSLRLSCAASPFTLDYYAIGWFRQAPGKEREGVSCSTSHGKTYHADSVKGRFTISRDNAKNTVYLQMNSLKPEDTAVYYCAAGACMGGSGYEADFGSWGQGTQVTVSS
notes: Tested as periplasmic extract
B4: 4B1 (VHH)
VHH: B3 VHH with A23V, S25A, P26G, S51I, H54D, K56R, H59Y, N73M, N76K, T77M
notes: Tested as periplasmic extract
B5: 4D4 (VHH)
VHH: EVQLVESGGGLVQAGDSLRLSCAASGRTFSPYVMGWFRRAPGKEREFVGGINWSGSNTWYTDSVKGRFTISRDNVKNMVYLQMNSLKPEDTAVYYCAAGSGVGMYRYERQYDYWGQGTQVTVSS
notes: Tested as periplasmic extract
B6: 4B10 (VHH)
VHH: EVQLVESGGGLVQAGDSLRLSCAASGRTFSSYAMGWFRQAPGTERQFVARITGKGDSTDYADSVRGRFTISRDNAKNTVYLQMNSLKPEDTAVYYCAADAFNSLLQAGRAEYWGQGTQVTVSS
notes: Tested as periplasmic extract
B7: 4D5 (VHH)
VHH: EVQLVESGGGLVQAGGSLRLSCAASGLSFSKYAMGWFRQAPGKQREYVAVISSSDTTYYTNSAKGRFTISRDNAENTVYLQMNSLKPEDTAVYFCAADSYVTALQTLTQISYWGQGTQVTVSS
notes: Tested as periplasmic extract
B8: 4C11 (albumin binder) (VHH)
VHH: B7 VHH with K31R, Y100F, S111N
notes: Tested as periplasmic extract
B9: 4A9 (VHH)
VHH: EVQLVESGGGLVQAGGSLRLSCEASGFTLDYSGVGWFRQAPGKERELVSCISRGGDRAGYANSVKGRFTMSRDNAKNILYLQMNSLKPEDTAVYYCAATHSGSGCYDGAIDYWGKGTLVTVSS
notes: Tested as periplasmic extract
B10: 4C4 (VHH)
VHH: EVQLVESGGGLVQAGDSLRLSCAASGRPFMSYVMGWFRRAPGKEREFVGGINWGSGNTWYTDSVLGRFTISRDNAKNTVYLQMNSLKPEDTAVYYCATAAGVGYYRYERQYDYWGQGTQVTVSS
notes: Tested as periplasmic extract
B11: 4D7 (VHH)
VHH: B10 VHH with M30S, G54N, T61S, Y80D, A100S
notes: Tested as periplasmic extract
B12: 4C5 (VHH)
VHH: B10 VHH with M30S, S31A, G54N, G56A, R72K, T98A, A100G
notes: Tested as periplasmic extract
B13: 4D10 (VHH)
VHH: EVQLVESGGGLVQAGDSLRLSCTASERPFMSYVMGWFRRAPGKDREFVGAITWSGINTWYSDSVLGRFTISRDNAKNTVYLQMNSLKPEDTAVYYCAVADGVGLYRYERQYDYWGQGTQVTVSS
notes: Tested as periplasmic extract
B14: 4C9 (VHH)
VHH: EVQLVESGGGLVQAGDSLRLSCTASERPFSTYVMGWFRRAPGKEREFVGGITWSGINAWYTDSVLGRFTISSDNAKNTVYLQMNSLKPEDTAVYYCAAASGVGRYRYELQYDYWGQGTQVTVSS
notes: Tested as periplasmic extract
B15: 4C3 (VHH)
VHH: EVQLVESGGGLVQAGGSLRLSCAASGRTFSSYAMAWFRQAPGEEREFVATISVSGGYTYYADSVKGRFTISRDNAKNTVYLQMNTLKPEDTAVYYCAAGDSSSWLEHMYDYWGQGTQVTVSS
notes: Tested as periplasmic extract
B16: 4A2 (VHH)
VHH: EVQLVESGGGLVQAGGSLRLSCAASGLSFSSYAMGWFRQAPGKEREFVAAIRRREGNSYYADSVKGRFTISRDSAKNTVYLQMNSLKPEDTALYSCAATAPHYSGSFAYAGGYDYWGQGTQVTVSS
notes: Tested as periplasmic extract
B17: 4B8 (VHH)
VHH: EVQLVESGGGLVQAGGSLRLSCAASGGTYSGNAMAWFRQAPGKEREFVAGIDWSSENTRYIDSVKGRFTISRDNAKNTMYLQMNSLKPEDTAVYYCAAGTSWGALASRLEAAYSSWGQGTQVTVSS
notes: Tested as periplasmic extract
B18: 4B6 (VHH)
VHH: B17 VHH with E1K, A14V, A23V, G27R, S30G, I61T, A111N, S115A
notes: Tested as periplasmic extract
B19: 4B5 (VHH)
VHH: B17 VHH with G16D, G27R, G31R, N77S
notes: Tested as periplasmic extract
B20: 4C8 (VHH)
VHH: EVQLVESGGGLVQAGDSLRLSCAASGRTYTPYVMGWFRRAPGKEREFVGAVSWSGTNTWYTDSVKGRFTISRDNAKNTVYLQMNSLKPEDTAVYYCAAGDGVGIYRYEHQYDYWGQGTQVTVSS
notes: Tested as periplasmic extract
B21: 4D3 (VHH)
VHH: EVQLVKSGGGLVQPGGSLRLSCAASGFTFSHYQMSWVRQAPGKDVEWVSSISMLGGGTTYADSVKGRFTISRDNAKSTLVLQMNNLKVEDTAVYYCARGFSGNYYRADLGQGTQVTVSS
notes: Tested as periplasmic extract
B22: 1D2 (VHH)
VHH: EVQLVESGGGLVQPGGSLRLSCAASGFTLDYYAIGWFRRAPGKEREGVSCTSSSDGSTYYADSVKGRFTISRDNAKNTVYLQMNSLKPEDTAVYYCATTFGDACTVVAGIPDQYDFGSWGQGTQVTVSS
notes: Carries myc and His tags
B23: 4D9 (VHH)
VHH: B22 VHH with A33D, R39Q
B24: 1E7 (VHH)
VHH: EVQLVESGGGLVQAGGSLRLSCAASGRTFSNYVMGWFRQAPGKEREFVAAISWSGVTTYHYSADSVKGRFTTSRDNDRNTAHLQMNSLKPEDTAVYYCAARGRTGSDPRKGDDYDYWGQGTQVTVSS
notes: Carries a myc tag (detected with anti-myc)
B25: 4B11 (VHH)
VHH: EVQLVESGGGLVQPGGSLRLSCAASGFTLDYYAIGWFRQAPGKEREGVSCISSSDMSDGITYYADSVKGRFTSSRDNVKNTVYLQMNSLKPEDTAVYYCATTFGDACTVVAGIPDQADFDSWGQGTQVTVSS
notes: Carries myc and His tags

molecular target: T1, human pIgR overexpressed in MDCK cells (human, UniProt P01833 19-764); test: immunoprecipitation from cell lysates with His-tagged nanobodies on talon beads, blot with a-hSC
T1 construct: whole, on cells; also called hpIgR; human polymeric immunoglobulin receptor
T1 sequence (P01833 19-764): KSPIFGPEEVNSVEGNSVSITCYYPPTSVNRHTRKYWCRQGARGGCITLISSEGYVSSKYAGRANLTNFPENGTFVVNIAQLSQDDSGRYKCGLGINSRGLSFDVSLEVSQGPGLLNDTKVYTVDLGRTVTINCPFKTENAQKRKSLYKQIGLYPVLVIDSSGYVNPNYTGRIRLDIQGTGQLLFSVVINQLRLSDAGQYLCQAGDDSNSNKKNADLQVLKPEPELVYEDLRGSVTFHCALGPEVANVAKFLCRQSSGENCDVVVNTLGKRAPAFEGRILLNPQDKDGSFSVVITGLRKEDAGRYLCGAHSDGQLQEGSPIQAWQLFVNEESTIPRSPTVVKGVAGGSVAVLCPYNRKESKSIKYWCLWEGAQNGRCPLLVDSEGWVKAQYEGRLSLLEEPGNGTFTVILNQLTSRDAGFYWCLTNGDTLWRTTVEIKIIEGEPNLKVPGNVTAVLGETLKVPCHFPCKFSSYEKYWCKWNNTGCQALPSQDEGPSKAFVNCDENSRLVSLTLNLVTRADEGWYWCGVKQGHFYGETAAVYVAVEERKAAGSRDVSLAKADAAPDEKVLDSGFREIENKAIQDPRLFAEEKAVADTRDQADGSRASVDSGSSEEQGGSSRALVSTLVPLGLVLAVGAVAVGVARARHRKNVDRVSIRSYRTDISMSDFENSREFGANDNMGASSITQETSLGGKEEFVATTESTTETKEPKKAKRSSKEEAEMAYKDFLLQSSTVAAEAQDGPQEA

B1: binds.
B2: binds.

molecular target: T2, human serum albumin (human, UniProt P02768 25-609); test: SPR (Biacore), HSA amine-coupled on CM5, pH 5
T2 construct: also called HSA

In order of falling koff:
1. B6  0.0434 s⁻¹
2. B8  0.0312 s⁻¹
3. B7  0.0263 s⁻¹
4. B16  0.0227 s⁻¹
5. B5  0.0166 s⁻¹
6. B21  0.0137 s⁻¹
7. B3  0.00999 s⁻¹
8. B4  0.00773 s⁻¹
9. B9  0.00701 s⁻¹
10. B19  0.00403 s⁻¹
11. B15  0.00375 s⁻¹
12. B13  0.00341 s⁻¹
13. B20  0.00209 s⁻¹
14. B17  0.0018 s⁻¹
15. B14  0.00171 s⁻¹
16. B11  0.00158 s⁻¹
17. B12  0.00132 s⁻¹
18. B10  0.00121 s⁻¹
19. B18  0.00119 s⁻¹

molecular target: T3, ectodomain of human pIgR (R&D Systems Cat #2717-PG) (human, UniProt P01833 19-638); test: competition ELISA, dilution series of purified Nanobody against 1 ug/ml IgA on immobilised pIgR ectodomain
T3 construct: extracellular domain; Immobilised on Maxisorp plates at 5 ug/ml; also called pIgR ectodomain
T3 sequence (P01833 19-638): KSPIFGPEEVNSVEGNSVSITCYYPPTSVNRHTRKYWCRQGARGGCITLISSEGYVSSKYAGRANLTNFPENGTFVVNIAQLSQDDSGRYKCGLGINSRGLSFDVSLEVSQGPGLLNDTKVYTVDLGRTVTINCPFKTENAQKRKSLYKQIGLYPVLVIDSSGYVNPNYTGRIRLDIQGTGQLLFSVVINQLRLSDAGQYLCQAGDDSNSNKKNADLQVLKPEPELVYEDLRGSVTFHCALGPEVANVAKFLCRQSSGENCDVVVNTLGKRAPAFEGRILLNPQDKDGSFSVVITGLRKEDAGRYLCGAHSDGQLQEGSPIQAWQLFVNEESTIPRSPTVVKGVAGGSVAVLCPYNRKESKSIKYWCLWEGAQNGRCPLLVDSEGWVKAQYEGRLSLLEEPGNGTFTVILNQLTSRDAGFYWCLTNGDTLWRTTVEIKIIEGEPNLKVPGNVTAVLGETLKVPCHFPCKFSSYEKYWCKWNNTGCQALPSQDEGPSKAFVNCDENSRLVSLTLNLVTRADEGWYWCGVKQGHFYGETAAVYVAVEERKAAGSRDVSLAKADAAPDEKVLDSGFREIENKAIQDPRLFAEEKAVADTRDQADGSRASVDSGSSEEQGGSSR

B22: binds.
B23: binds.
B24: binds.
B1: binds.
B25: binds.

molecular target: T2, human serum albumin; test: SPR (Biacore), HSA amine-coupled on CM5, pH 7

In order of falling koff:
1. B6  0.0499 s⁻¹
2. B8  0.0263 s⁻¹
3. B7  0.0204 s⁻¹
4. B9  0.013 s⁻¹
5. B4  0.00875 s⁻¹
6. B16  0.00642 s⁻¹
7. B5  0.00602 s⁻¹
8. B21  0.00565 s⁻¹
9. B19  0.00174 s⁻¹
10. B3  0.00173 s⁻¹
11. B15  0.00112 s⁻¹
12. B17  0.000741 s⁻¹
13. B11  0.000653 s⁻¹
14. B20  0.000624 s⁻¹
15. B12  0.000541 s⁻¹
16. B13  0.000523 s⁻¹
17. B10  0.000499 s⁻¹
18. B14  0.000441 s⁻¹
19. B18  0.000368 s⁻¹

molecular target: T1, human pIgR overexpressed in MDCK cells; test: immunofluorescence on MDCK cells overexpressing human pIgR, 3 uM purified Nanobody at 4C, anti-myc detection

B22: binds.
B24: binds.
B25: binds.

molecular target: T2, human serum albumin; test: SPR (Biacore), ratio of the off rates at the two pH

In order of rising “Ratio pH 7/pH 5” value:
1. B9  0.54
2. B6  0.87
3. B4  0.88
4. B8  1.19
5. B7  1.29
6. B19  2.32
7. B10  2.42
8. B11  2.42
9. B21  2.42
10. B17  2.43
11. B12  2.44
12. B5  2.76
13. B18  3.23
14. B15  3.35
15. B20  3.35
16. B16  3.54
17. B14  3.88
18. B3  5.77
19. B13  6.52
